Test results: the Human Domainome abundance scans (Beltran et al. 2025)
± gives the uncertainty stated by the source.

B1: Serine/threonine-protein kinase A-Raf, residues 21 to 89; numbered along this chain, P10398 (parent)
chain: VKVYLPNKQRTVVTVRDGMSVYDSLDKALKVRGLNQDCCVVYRLIKGRKTVTAWDTAIAPLDGEELIVE
B2: Formin-binding protein 4, residues 593 to 636; numbered along this chain, Q8N3X1 (parent)
chain: EINATPKGWSCHWDRDHRRYFYVNEQSGESQWEFPDGEEEEEES

Variants of: B1
Experiment: abundance fitness (aPCA) (normalised: wild type 0, dead -1); higher = more abundant; growth selection in yeast, the domain comes from the species named
Conditions: Homo sapiens

Variant	abundance fitness
R10M	0.139 ± 0.06
R10E	0.118 ± 0.064
R10I	0.258 ± 0.11
R10L	-0.059 ± 0.047
R10G	-0.158 ± 0.045
V12L	-0.189 ± 0.041
V12W	-0.067 ± 0.048
V12G	-0.983 ± 0.14
V12P	-0.748 ± 0.26
V12D	-0.341 ± 0.18
C39A	-0.504 ± 0.1
C39H	-0.171 ± 0.093
C39V	-0.161 ± 0.066
C39W	-0.841 ± 0.38
V1A	-0.684 ± 0.21
V1S	-0.528 ± 0.25
V1C	-0.184 ± 0.28
V1I	-0.096 ± 0.18
V40R	-0.131 ± 0.051
V40S	-0.321 ± 0.05
V40F	-0.828 ± 0.14
V40L	-0.259 ± 0.057
V40Y	-0.273 ± 0.093
V40I	-0.09 ± 0.15

Variant	abundance fitness
T50A	-0.227 ± 0.31
T50E	-0.515 ± 0.38
K27Q	-0.39 ± 0.37
K49R	-0.135 ± 0.049
K49F	-0.63 ± 0.22
K49L	-0.331 ± 0.039
V13D	-0.714 ± 0.23
V13L	-0.202 ± 0.048
D26I	-0.146 ± 0.09
D26M	-0.119 ± 0.063
D26R	0.023 ± 0.051
D26Y	-0.182 ± 0.14
D26T	-0.277 ± 0.12
D26C	0.063 ± 0.099
D26W	-0.113 ± 0.061
D17L	-0.319 ± 0.047
D17P	0.075 ± 0.057
I45G	-0.198 ± 0.12
I45V	-0.067 ± 0.12
I45R	-0.098 ± 0.053
I45C	-0.458 ± 0.2
I45F	-0.179 ± 0.074
I45P	-1.1 ± 0.32
I45L	-0.11 ± 0.051

Variant	abundance fitness
I45N	-0.435 ± 0.27
I45Y	-0.077 ± 0.19
W54S	-0.808 ± 0.14
W54R	-0.879 ± 0.1
W54V	-0.913 ± 0.14
V15N	-0.408 ± 0.13
V15K	-0.797 ± 0.19
V15F	-0.001 ± 0.075
V15M	-0.234 ± 0.082
Y42E	-1.02 ± 0.26
Y42I	-0.844 ± 0.35
Y42K	-0.481 ± 0.16
Y42H	-0.557 ± 0.12
Y42Q	-0.945 ± 0.38
V31L	0.005 ± 0.046
V31K	-0.042 ± 0.079
V31T	0.015 ± 0.08
V31D	-0.265 ± 0.25
K30F	-0.574 ± 0.12
K30Q	-0.217 ± 0.063
K30H	-0.83 ± 0.29
K30Y	-0.403 ± 0.13
K30P	-0.957 ± 0.19
K30L	-0.561 ± 0.087

Variant	abundance fitness
D37W	-0.838 ± 0.31
D37A	-0.39 ± 0.097
D37V	-0.755 ± 0.13
D37I	-0.39 ± 0.26
D37R	-0.198 ± 0.059
A53T	-0.127 ± 0.085
A53N	-0.257 ± 0.13
A53D	-0.03 ± 0.14
A53W	-0.728 ± 0.084
G18C	-0.261 ± 0.084
G18Y	-0.638 ± 0.2
G18I	-0.882 ± 0.23
G18Q	-0.305 ± 0.11
G18S	-0.239 ± 0.053
G18H	-0.244 ± 0.13
G18W	-0.636 ± 0.11
D55S	-0.168 ± 0.036
D55T	-0.335 ± 0.053
D55M	-0.557 ± 0.064
D55C	-0.52 ± 0.087
Y22C	-0.176 ± 0.12
Y22Q	0.041 ± 0.054
Y22M	-0.142 ± 0.063
Y22D	-0.83 ± 0.25

Variant	abundance fitness
Y22V	-0.321 ± 0.057
Y22N	-0.346 ± 0.15
Y22K	0.012 ± 0.062
R16M	-0.181 ± 0.082
R16C	-0.028 ± 0.1
R16S	-0.048 ± 0.042
R16T	-0.086 ± 0.063
R16H	0.191 ± 0.081
R43D	-0.939 ± 0.43
R43I	-1 ± 0.37
R43M	-1 ± 0.23
R43C	-0.742 ± 0.15
R43Q	-0.102 ± 0.076
R43S	-0.305 ± 0.061
K46P	-0.941 ± 0.14
K46V	-0.792 ± 0.089
K46T	-0.383 ± 0.069
K46C	-0.133 ± 0.11
L34Y	-0.459 ± 0.22
L34H	-0.789 ± 0.22
L34F	-0.074 ± 0.14
D23Y	-0.825 ± 0.21
D23V	-0.389 ± 0.039
D23C	-0.908 ± 0.26

Variant	abundance fitness
D23M	-0.301 ± 0.069
D23R	-0.283 ± 0.045
Q9K	-0.042 ± 0.095
Q9L	-0.455 ± 0.063
Q9I	-0.162 ± 0.094
Q9W	-0.448 ± 0.064
Q9V	-0.035 ± 0.046
Q9S	-0.11 ± 0.059
L5K	-0.99 ± 0.16
L5F	0.102 ± 0.097
N7T	-0.655 ± 0.072
N7D	0.039 ± 0.054
N7H	-0.272 ± 0.065
N7L	-0.735 ± 0.05
N7M	-0.406 ± 0.039
N7Y	-0.19 ± 0.087
N7V	-0.929 ± 0.073
M19V	-0.057 ± 0.057
M19K	-0.223 ± 0.1
M19H	-0.491 ± 0.4
M19C	-0.091 ± 0.11
M19T	-0.034 ± 0.071
M19I	-0.413 ± 0.11
M19R	-0.218 ± 0.032

Variant	abundance fitness
M19Q	0.011 ± 0.08
M19E	-0.013 ± 0.078
L61E	-0.25 ± 0.087
L61N	-0.371 ± 0.15
L61D	-0.365 ± 0.23
L61C	-0.367 ± 0.31
L61R	-0.108 ± 0.043
R32E	-0.193 ± 0.045
R32A	0.088 ± 0.063
R32C	-0.162 ± 0.21
R32K	-0.369 ± 0.068
R32Y	-0.012 ± 0.19
T52Q	-0.317 ± 0.089
T52W	-0.31 ± 0.052
T52Y	-0.188 ± 0.11
T52P	-1.04 ± 0.2
T52S	-0.567 ± 0.071
A59E	-0.068 ± 0.067
A59K	-0.076 ± 0.067
A59L	-0.071 ± 0.049
A59Y	0.01 ± 0.44
A59W	-0.14 ± 0.065
D62I	-0.015 ± 0.12
D62K	-0.097 ± 0.077

Variant	abundance fitness
D62H	-0.073 ± 0.12
E69R	-0.635 ± 0.19
E69Y	-0.809 ± 0.17
E69A	-0.497 ± 0.081
E69F	-0.884 ± 0.23
E69M	-0.682 ± 0.21
E69D	-0.248 ± 0.079
P60W	-0.199 ± 0.075
P60Y	0.043 ± 0.14
P6S	-0.233 ± 0.24
P6L	-0.804 ± 0.21
Y4T	-0.101 ± 0.061
Y4M	0.032 ± 0.06
Y4I	-0.001 ± 0.15
Y4G	-0.663 ± 0.069
Y4C	-0.366 ± 0.098
G33E	-0.26 ± 0.22
G33Y	-0.894 ± 0.32
S24A	0.174 ± 0.042
S24K	-0.912 ± 0.17
S24H	-0.949 ± 0.3
S24P	-0.896 ± 0.21
T56H	-0.151 ± 0.086
T56S	-0.009 ± 0.038

Variant	abundance fitness
T56K	-0.153 ± 0.049
T56V	-0.235 ± 0.034
T56G	-0.21 ± 0.052
T56F	-0.693 ± 0.17
T56P	-0.614 ± 0.11
T56E	0.106 ± 0.037
T56M	-0.095 ± 0.039
A28F	-0.122 ± 0.27
A28Q	-0.438 ± 0.096
A28R	-1.06 ± 0.14
T14M	-0.113 ± 0.083
T14D	-0.205 ± 0.098
T14S	-0.156 ± 0.067
T14K	-0.008 ± 0.061
T14V	-0.126 ± 0.063
T14L	-0.172 ± 0.058
C38E	0.118 ± 0.091
C38T	-0.004 ± 0.082
C38H	-0.019 ± 0.11
C38W	-0.179 ± 0.059
T11M	-0.002 ± 0.059
T11W	-0.652 ± 0.09
T11R	-0.652 ± 0.063
S20D	-0.296 ± 0.14

Variant	abundance fitness
S20C	-0.31 ± 0.12
S20W	-0.847 ± 0.14
S20R	-0.352 ± 0.044
S20V	-0.876 ± 0.16
S20P	-0.728 ± 0.11
L44S	-0.15 ± 0.06
L44K	-0.031 ± 0.076
L44V	-0.112 ± 0.052
L44N	-0.082 ± 0.17
L44E	-0.279 ± 0.08
L44R	-0.108 ± 0.044
L44I	0.073 ± 0.082
L44D	-0.65 ± 0.45
Q36C	-0.206 ± 0.12
Q36P	-0.03 ± 0.067
Q36A	-0.043 ± 0.071
Q36D	-0.582 ± 0.31
E65C	-0.122 ± 0.14
E65F	-0.607 ± 0.25
E65K	-0.122 ± 0.071
E65G	-0.294 ± 0.072
E65M	-0.34 ± 0.13
E65V	-0.077 ± 0.063
E65L	-0.349 ± 0.1

Variant	abundance fitness
E65T	-0.01 ± 0.097
K2N	-0.139 ± 0.17
K2Q	-0.32 ± 0.062
K2S	-0.172 ± 0.091
K2W	-0.314 ± 0.15
K2R	0.038 ± 0.057
K2D	-0.416 ± 0.26
K2G	-0.37 ± 0.079
G47R	-0.841 ± 0.11
G47S	-0.734 ± 0.11
G47P	-0.959 ± 0.19
G47E	-0.573 ± 0.083
G47C	-0.826 ± 0.17
V51T	-0.324 ± 0.15
V51M	0.093 ± 0.07
V51L	0.026 ± 0.046
V51R	-0.002 ± 0.042
V51H	-0.156 ± 0.22
I58C	-0.001 ± 0.083
I58P	-0.872 ± 0.21
I58G	-0.725 ± 0.094
I58F	-0.021 ± 0.12
V68I	-0.127 ± 0.22
R48M	-0.183 ± 0.1

Variant	abundance fitness
R48S	-0.288 ± 0.069
R48W	-0.535 ± 0.082
R48L	-0.307 ± 0.062
R48D	-0.271 ± 0.094
L25T	-0.978 ± 0.16
L25I	-0.573 ± 0.17
L25R	-0.924 ± 0.082
L25F	-0.903 ± 0.24
L25C	-0.427 ± 0.18
L25Q	-0.961 ± 0.17
L25S	-0.891 ± 0.11
L25H	-1.06 ± 0.14
L25G	-0.697 ± 0.1
V3K	-0.622 ± 0.11
V3Q	-1.02 ± 0.23
G63S	-0.107 ± 0.098
G63K	-0.722 ± 0.17
G63C	-0.055 ± 0.07
G63Y	-0.376 ± 0.14
E64G	-0.25 ± 0.088
V21M	-0.207 ± 0.09
V21L	0.093 ± 0.049
V21A	-0.273 ± 0.08
V21K	-0.493 ± 0.25

Variant	abundance fitness
L29V	-0.806 ± 0.095
L29C	-0.995 ± 0.3
L29T	-0.845 ± 0.2
L29A	-0.933 ± 0.18
L29Q	-0.913 ± 0.23
L29W	-0.601 ± 0.07
K8N	0.132 ± 0.073
K8A	-0.042 ± 0.048
K8T	-0.286 ± 0.052
K8V	-0.723 ± 0.071
N35Q	-0.221 ± 0.069
N35A	-0.188 ± 0.066
N35M	-0.321 ± 0.081
N35G	-0.154 ± 0.041
N35E	0.016 ± 0.068
N35L	-0.32 ± 0.044
V41D	-0.841 ± 0.19
V41N	-0.836 ± 0.31
V41C	-0.15 ± 0.072
V41H	-0.641 ± 0.25
V41G	-0.899 ± 0.12

Variants of: B2
Experiment: as above
Conditions: Homo sapiens

Variant	abundance fitness
W9E	-0.661 ± 0.16
N24T	-0.63 ± 0.14
N24V	-1.08 ± 0.072
E29W	-0.559 ± 0.093
R15T	-0.162 ± 0.29
R15Y	-0.302 ± 0.2
G37S	-0.112 ± 0.07
G37L	-0.151 ± 0.071
E33C	-0.355 ± 0.25
E33N	0.031 ± 0.094
P6G	-0.587 ± 0.24
S30F	-0.066 ± 0.36
D36K	-0.076 ± 0.12
S27F	-0.988 ± 0.17
R19S	-0.391 ± 0.14
F34Y	-0.084 ± 0.12
F34E	-0.074 ± 0.088
S10R	-0.265 ± 0.085
N3S	-0.072 ± 0.12
N3A	-0.177 ± 0.088
E40P	-0.011 ± 0.061
E38R	-0.023 ± 0.059
E38P	0.056 ± 0.07
P35D	-0.712 ± 0.092
P35A	-0.455 ± 0.066
